Source: US20200317802A1

T1: human ADAMTS4 (R&D Systems cat #4307-AD) (human) (UniProt O75173)
T1 sequence (looked up): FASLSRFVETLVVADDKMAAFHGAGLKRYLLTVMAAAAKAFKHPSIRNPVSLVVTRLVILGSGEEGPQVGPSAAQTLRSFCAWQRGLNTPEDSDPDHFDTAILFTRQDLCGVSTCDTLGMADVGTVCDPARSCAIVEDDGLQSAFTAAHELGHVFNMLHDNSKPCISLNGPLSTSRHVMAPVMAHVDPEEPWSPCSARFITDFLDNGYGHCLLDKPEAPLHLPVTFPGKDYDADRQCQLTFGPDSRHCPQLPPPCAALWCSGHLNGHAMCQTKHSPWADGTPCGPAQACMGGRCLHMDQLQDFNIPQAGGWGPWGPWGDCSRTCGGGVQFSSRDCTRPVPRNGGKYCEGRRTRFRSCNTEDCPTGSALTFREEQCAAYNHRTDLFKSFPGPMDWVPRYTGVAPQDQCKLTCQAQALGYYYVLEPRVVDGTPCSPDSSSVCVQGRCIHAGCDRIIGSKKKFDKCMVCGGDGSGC


Tests used:
[1] = target: bovine recombinant ADAMTS5 (bovine); assay: SPR off-rate, Biacore T100, ADAMTS5 immobilised, experiment 3
[2] = target: recombinant human ADAMTS5 (R&D Systems cat #2198-AD) (human) (UniProt Q9UNA0); assay: cell-based or functional assay
[3] = target: T1, human ADAMTS4 (R&D Systems cat #4307-AD) (human)
[4] = target: activated human MMP-1 (human) (UniProt P03956)
Chain of activated human MMP-1 (human) (P03956 100-469 limits assumed): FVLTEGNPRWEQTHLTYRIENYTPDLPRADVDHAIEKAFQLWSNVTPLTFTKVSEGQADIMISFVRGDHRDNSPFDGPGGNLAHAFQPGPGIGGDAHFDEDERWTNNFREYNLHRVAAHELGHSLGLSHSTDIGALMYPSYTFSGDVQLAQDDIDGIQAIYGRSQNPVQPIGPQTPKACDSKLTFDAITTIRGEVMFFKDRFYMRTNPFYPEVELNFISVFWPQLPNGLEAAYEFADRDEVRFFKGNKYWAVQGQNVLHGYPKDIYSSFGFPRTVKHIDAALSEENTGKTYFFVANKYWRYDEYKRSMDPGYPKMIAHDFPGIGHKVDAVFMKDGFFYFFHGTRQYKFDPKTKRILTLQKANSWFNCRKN

Chain of recombinant human ADAMTS5 (R&D Systems cat #2198-AD) (human) (Q9UNA0 262-622 limits assumed): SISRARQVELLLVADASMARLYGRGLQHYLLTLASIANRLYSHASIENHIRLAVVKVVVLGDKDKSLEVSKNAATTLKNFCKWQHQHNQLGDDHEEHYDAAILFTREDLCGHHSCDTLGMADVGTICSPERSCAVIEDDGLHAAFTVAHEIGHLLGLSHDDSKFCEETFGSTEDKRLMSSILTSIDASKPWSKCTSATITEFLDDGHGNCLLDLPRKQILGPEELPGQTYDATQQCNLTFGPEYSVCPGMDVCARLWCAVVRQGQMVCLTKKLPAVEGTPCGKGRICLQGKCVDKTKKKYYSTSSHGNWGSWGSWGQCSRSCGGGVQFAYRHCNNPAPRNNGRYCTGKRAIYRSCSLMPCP

Row | koff [1] | Binder | further results
1 | 0.00035 s⁻¹ | Nanobody 3D01 (VHH) VHH: EVQLVESGGGLVQAGGSLRLSCAPSGFTFSPYYMGWFRQAPGKERDFVAAISRSRGTTYYLDSTEGRFTISRDNANDTVYLQMNSLNPEDTAVYYCAAGRSPGDPSRTYLYDYWGQGTLVTVSS | 
2 | 0.00099 s⁻¹ | Nanobody 9D03 (VHH) VHH: EVQLVESGGGLVQSGGSLRLSCAASGSAVSVNAMAWYRQAPGKQRDFVAGISRSAGRTYYTDSVKDRFTIARDSAKNTVYLQMNRLKPEDTAVYYCAADLDPNRIFSRDEAAYWGQGTLVTVSS | 

Continued, binder first:

Row | Binder | koff [1] | further results
3 | Nanobody 2D07 (VHH) VHH: EVQLVESGGGLVQAGGSLRLSCSFSGPGRTFARYAMGWFRQAPGKNRDFITGISGSGDSTYYVYPMKDRFTISRDNAKNMVYLQMNALKPEDTAVYYCAADREINRIANDKELDFWGQGTLVTVSS | 0.00062 s⁻¹ | 
4 | Nanobody 3B02 (VHH) VHH: EVQLVESGGGFVQAGGSLRLSCVASRRTISSGTMGWFRQAPGKEREFVAAIRWSSGMPYYLDSVMDRFTISRDNAKNTVSLQMNSLQPEDTAVYYCAADRSAFRDPSFDVNYEYWGRGTLVTVSS | 0.0011 s⁻¹ | 
5 | Nanobody 11B06 (VHH) VHH: EVQLVESGGGLVQAGGSLRLSCAASGLTFRRNAMGWFRQAPGKERELLAGINWSGGTTYYVDSVKGRFTISRDNAKNTVDLQMISPKPEDTAVYYCAADGDIGTLVNDENPRYWGQGTLVTVSS | 0.00024 s⁻¹ | 
6 | Nanobody 2F03 (VHH) VHH: EVQLVESGGGLVQAGGSLRLSCAASGRTVSSYAMGWFRLAPGKEREFVAGISRSAERTYYVDSLKGRFTISRDSAKNTVYLHMNRLKPEDTAVYYCAADLDPNRIFSREEYAYWGQGTLVTVSS | 4.3e-05 s⁻¹ | 
7 | Nanobody 2A12 (VHH) VHH: EVQLVESGGGLVQAGGSLRLSCAASGRTFSSYAMGWFRQAPGKERDFVAGISRSAGRTYYVDSVKGRFTISRDSAKNTVYLQMNRLKPEDTAVYYCAADLDPNRIFSRDEAAYWGQGTLVTVSS | 0.00017 s⁻¹ | 
8 | rhTIMP3 (protein, human, UniProt P35625 24-211, looked up) CTCSPSHPQDAFCNSDIVIRAKVVGKKLVKEGPFGTLVYTIKQMKMYRGFTKMPHVQYIHTEASESLCGLKLEVNKYQYLLTGRVYDGKMYTGLCNFVERWDQLTLSQRKGLNYRYHLGCNCKIKSCYYLPCFVTSKNECLWTDMLSNFGYPGYQSKHYACIRQKGGYCSWYRGWAPPDKSIINATDP |  | Human AlphaLISA % inhibition [2]: 100%; Human AlphaLISA IC50 [2]: 0.61 nM; IC50 (read off the curve) (human ADAMTS-4 AlphaLISA) [right panel] [3]: 2 nM; IC50 (read off the curve) (human MMP-1 activity, FRET peptide substrate) [4]: 5 nM
